Test results: patent US20240209076A1 (KODIAK SCIENCES, published 2024)
Residue numbers refer to the chain shown, from its start. In names and notes the source's numbering stands.

B1: Anti-IL-6 antibody, heavy chain S35H, G66D / light chain WT (antibody, IgG1, V domains shown)
VH: EVQLVESGGGLVQPGGSLRLSCAASGFTFSPFAMHWVRQAPGKGLEWVAKISPGGSWTYYSDTVTDRFTFSLDTSKSTAYLQMNSLRAEDTAVYYCARQLWGYYALDIWGQGTLVTVSS
VL: DIQLTQSPSSLSASVGDRVTITCSASISVSYMYWYQQKPGKAPKLLIYDMSNLASGVPSRFSGSGSGTDFTLTISSLQPEDFATYYCMQWSGYPYTFGQGTKVEIK
notes: IgG1; variable domains only
B2: Anti-IL-6 antibody, heavy chain S35H, G66D, L100I / light chain WT (antibody, IgG1, V domains shown)
VH: B1 VH with L100I
VL: B1 VL
notes: IgG1; variable domains only
B3: Anti-IL-6 antibody, heavy chain S35H, G66D, L100Q / light chain WT (antibody, IgG1, V domains shown)
VH: B1 VH with L100Q
VL: B1 VL
notes: IgG1; variable domains only
B4: Anti-IL-6 antibody, heavy chain G66D / light chain M32L, M50D, N52S, M88Q (antibody, IgG1, V domains shown)
VH: B1 VH with H35S
VL: B1 VL with M32L, M50D, N52S, M88Q
notes: IgG1; variable domains only; VL is variant III
B5: Anti-IL-6 antibody, heavy chain S35H, G66D, L100I / light chain M32L, M50D, N52S, M88Q (antibody, IgG1, V domains shown)
VH: B1 VH with L100I
VL: B1 VL with M32L, M50D, N52S, M88Q
notes: as for B4
B6: Anti-IL-6 antibody, heavy chain S35H, G66D, L100R / light chain M32L, M50D, N52S, M88Q (antibody, IgG1, V domains shown)
VH: B1 VH with L100R
VL: B1 VL with M32L, M50D, N52S, M88Q
notes: as for B4
B7: Anti-IL-6 antibody, heavy chain S35H, G66D, L100D / light chain M32L, M50D, N52S, M88Q (antibody, IgG1, V domains shown)
VH: B1 VH with L100D
VL: B1 VL with M32L, M50D, N52S, M88Q
notes: as for B4
B8: Anti-IL-6 antibody, heavy chain S35H, G66D, L100H / light chain WT (antibody, IgG1, V domains shown)
VH: B1 VH with L100H
VL: B1 VL
notes: IgG1; variable domains only
B9: anti-IL-6 antibody, heavy chain WT, light chain S24V (antibody, IgG1, V domains shown)
VH: B1 VH with H35S, D66G
VL: B1 VL with S24V
notes: Full IgG1 tested; V domains derived as in m2
B10: Anti-IL-6 antibody, heavy chain S35H, G66D, L100F / light chain WT (antibody, IgG1, V domains shown)
VH: B1 VH with L100F
VL: B1 VL
notes: IgG1; variable domains only
B11: Anti-IL-6 antibody, heavy chain G66D / light chain WT (antibody, IgG1, V domains shown)
VH: B1 VH with H35S
VL: B1 VL
notes: IgG1; variable domains only
B12: Anti-IL-6 antibody, heavy chain S35H, G66D, L100A / light chain WT (antibody, IgG1, V domains shown)
VH: B1 VH with L100A
VL: B1 VL
notes: IgG1; variable domains only
B13: anti-IL-6 antibody, heavy chain Y103E, light chain WT (antibody, IgG1, V domains shown)
VH: B1 VH with H35S, D66G, Y103E
VL: B1 VL
notes: as for B9
B14: anti-IL-6 antibody, heavy chain WT, light chain S26H (antibody, IgG1, V domains shown)
VH: B1 VH with H35S, D66G
VL: B1 VL with S26H
notes: as for B9
B15: anti-IL-6 antibody, heavy chain Y103D, light chain WT (antibody, IgG1, V domains shown)
VH: B1 VH with H35S, D66G, Y103D
VL: B1 VL
notes: as for B9
B16: anti-IL-6 antibody, heavy chain WT, light chain S24K (antibody, IgG1, V domains shown)
VH: B1 VH with H35S, D66G
VL: B1 VL with S24K
notes: as for B9
B17: anti-IL-6 antibody, heavy chain Y103S, light chain WT (antibody, IgG1, V domains shown)
VH: B1 VH with H35S, D66G, Y103S
VL: B1 VL
notes: as for B9
B18: anti-IL-6 antibody, heavy chain V48Q, light chain WT (antibody, IgG1, V domains shown)
VH: B1 VH with H35S, V48Q, D66G
VL: B1 VL
notes: as for B9
B19: Anti-IL-6 antibody, heavy chain S35H, G66D, L100K / light chain WT (antibody, IgG1, V domains shown)
VH: B1 VH with L100K
VL: B1 VL
notes: IgG1; variable domains only
B20: anti-IL-6 antibody, heavy chain WT, light chain S26G (antibody, IgG1, V domains shown)
VH: B1 VH with H35S, D66G
VL: B1 VL with S26G
notes: as for B9
B21: anti-IL-6 antibody, heavy chain WT, light chain S26K (antibody, IgG1, V domains shown)
VH: B1 VH with H35S, D66G
VL: B1 VL with S26K
notes: as for B9
B22: Anti-IL-6 antibody, heavy chain S35H, G66D, L100P / light chain M32L, M50D, N52S, M88Q (antibody, IgG1, V domains shown)
VH: B1 VH with L100P
VL: B1 VL with M32L, M50D, N52S, M88Q
notes: as for B4
B23: Anti-IL-6 antibody, heavy chain S35H, G66D, L100G / light chain WT (antibody, IgG1, V domains shown)
VH: B1 VH with L100G
VL: B1 VL
notes: IgG1; variable domains only
B24: anti-IL-6 antibody, heavy chain V64A, light chain WT (antibody, IgG1, V domains shown)
VH: B1 VH with H35S, V64A, D66G
VL: B1 VL
notes: as for B9
B25: anti-IL-6 antibody, heavy chain V48I, light chain WT (antibody, IgG1, V domains shown)
VH: B1 VH with H35S, V48I, D66G
VL: B1 VL
notes: as for B9
B26: anti-IL-6 antibody, heavy chain WT, light chain S24I (antibody, IgG1, V domains shown)
VH: B1 VH with H35S, D66G
VL: B1 VL with S24I
notes: as for B9
B27: anti-IL-6 antibody, heavy chain Y104V, light chain WT (antibody, IgG1, V domains shown)
VH: B1 VH with H35S, D66G, Y104V
VL: B1 VL
notes: as for B9
B28: Anti-IL-6 antibody, heavy chain S35H, G66D, L100E / light chain M32L, M50D, N52S, M88Q (antibody, IgG1, V domains shown)
VH: B1 VH with L100E
VL: B1 VL with M32L, M50D, N52S, M88Q
notes: as for B4
B29: Anti-IL-6 antibody, heavy chain S35H, G66D, L100H / light chain M32L, M50D, N52S, M88Q (antibody, IgG1, V domains shown)
VH: B1 VH with L100H
VL: B1 VL with M32L, M50D, N52S, M88Q
notes: as for B4
B30: anti-IL-6 antibody, heavy chain WT, light chain S28E (antibody, IgG1, V domains shown)
VH: B1 VH with H35S, D66G
VL: B1 VL with S28E
notes: as for B9
B31: anti-IL-6 antibody, heavy chain WT, light chain S24P (antibody, IgG1, V domains shown)
VH: B1 VH with H35S, D66G
VL: B1 VL with S24P
notes: as for B9
B32: Anti-IL-6 antibody, heavy chain S35H, G66D, L100F / light chain M32L, M50D, N52S, M88Q (antibody, IgG1, V domains shown)
VH: B1 VH with L100F
VL: B1 VL with M32L, M50D, N52S, M88Q
notes: as for B4
B33: anti-IL-6 antibody, heavy chain WT, light chain S28R (antibody, IgG1, V domains shown)
VH: B1 VH with H35S, D66G
VL: B1 VL with S28R
notes: as for B9
B34: Anti-IL-6 antibody, heavy chain S35H, G66D, L100E / light chain WT (antibody, IgG1, V domains shown)
VH: B1 VH with L100E
VL: B1 VL
notes: IgG1; variable domains only
B35: Anti-IL-6 antibody, heavy chain S35H, G66D, L100D / light chain WT (antibody, IgG1, V domains shown)
VH: B1 VH with L100D
VL: B1 VL
notes: IgG1; variable domains only

Experiments:
human IL-6 = human IL-6 (human, UniProt P05231 30-212); assay: SPR Biacore, supernatant, Protein A capture, 37 C
Protocol: Those four positions were selected based on their tolerance for mutations as observed in bacterial and mammalian screens. […] These cultures were centrifuged and supernatants containing secreted antibodies were harvested and diluted in HBS-EP+ running buffer (1:20 ratio).
Antibodies were captured on a Protein A chip (GE) by injecting 1:20 cell supernatant dilutions at 10 μL/min for 60 seconds. […] The sensor chip was regenerated by a 60 seconds injection of 10 mM Glycine pH 1.7 at the flow rate of 50 μL/min. […] For this setup, 1 μg/mL of purified antibody was injected over a Protein A chip at 10 μL/min for 25 seconds. […] The sensor chip was regenerated by a 60 seconds injection of 10 mM Glycine pH 1.7 at flow rate of 50 μL/min. Data analysis for supernatant and purified samples were performed using BIAevaluation software (GE). All sensorgrams were double reference subtracted and fit using a 1:1 Langmuir binding model.

recombinant human IL-6 = molecular target: T1, recombinant human IL-6 (human, UniProt P05231 30-212); assay: SPR (Biacore), supernatant IgG on Protein A, 25 C
T1 construct: Flowed in solution over the captured antibodies
Protocol: Antibodies were captured on a Protein A chip (GE) by injecting 1:20 dilution of cell supernatant at 10 μL/min for 60 seconds. […] The sensor chip was regenerated by a 60 seconds injection of 10 mM Glycine pH 1.7 at flow rate of 50 μL/min. […] For this setup, 1 μg/mL of purified antibody was injected over a Protein A chip at 10 μL/min for 25-28 seconds. Data analysis for supernatant and purified samples were performed using BIAevaluation software (GE). All sensorgrams were double reference subtracted and fit using a 1:1 Langmuir binding model.

Sequence of human IL-6 (P05231 30-212 limits assumed): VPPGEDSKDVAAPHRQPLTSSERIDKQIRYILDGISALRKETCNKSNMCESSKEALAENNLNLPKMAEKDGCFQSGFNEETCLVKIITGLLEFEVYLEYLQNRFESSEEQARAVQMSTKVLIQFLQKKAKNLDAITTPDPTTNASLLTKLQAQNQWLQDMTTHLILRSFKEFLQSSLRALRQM
T1 sequence (P05231 30-212 limits assumed): as above

| Binder | Kd (human IL-6) [nM] | koff (human IL-6) [s⁻¹] | kon (human IL-6) [M⁻¹ s⁻¹] | Kd (recombinant human IL-6) [nM] | koff (recombinant human IL-6) [s⁻¹] | kon (recombinant human IL-6) [M⁻¹ s⁻¹] |
| --- | --- | --- | --- | --- | --- | --- |
| B1 | 0.374 | 0.000548 | 1.46e+06 | – | – | – |
| B2 | 0.692 | 0.000644 | 931000 | – | – | – |
| B3 | 0.18 | 0.00064 | 3.56e+06 | – | – | – |
| B4 | 0.393 | 0.000654 | 1.66e+06 | – | – | – |
| B5 | 0.372 | 0.000712 | 1.91e+06 | – | – | – |
| B6 | 0.878 | 0.00116 | 1.32e+06 | – | – | – |
| B7 | 0.35 | 0.00202 | 5.77e+06 | – | – | – |
| B8 | 0.688 | 0.000498 | 723000 | – | – | – |
| B9 | – | – | – | 0.403 | 0.000137 | 340000 |
| B10 | 0.244 | 0.000612 | 2.51e+06 | – | – | – |
| B11 | 0.296 | 0.00048 | 1.62e+06 | – | – | – |
| B12 | 0.184 | 0.000833 | 4.52e+06 | – | – | – |
| B13 | – | – | – | 0.229 | 0.000165 | 718000 |
| B14 | – | – | – | 0.36 | 0.000149 | 415000 |
| B15 | – | – | – | 0.297 | 0.000219 | 737000 |
| B16 | – | – | – | 0.424 | 0.000132 | 311000 |
| B17 | – | – | – | 0.423 | 0.000231 | 546000 |
| B18 | – | – | – | 0.21 | 0.000138 | 654000 |

| Binder | Kd (human IL-6) [nM] | koff (human IL-6) [s⁻¹] | kon (human IL-6) [M⁻¹ s⁻¹] | Kd (recombinant human IL-6) [nM] | koff (recombinant human IL-6) [s⁻¹] | kon (recombinant human IL-6) [M⁻¹ s⁻¹] |
| --- | --- | --- | --- | --- | --- | --- |
| B19 | 0.18 | 0.00106 | 5.88e+06 | – | – | – |
| B20 | – | – | – | 0.281 | 0.000223 | 793000 |
| B21 | – | – | – | 0.433 | 0.000164 | 379000 |
| B22 | 4.66 | 0.00354 | 759000 | – | – | – |
| B23 | 0.3 | 0.00096 | 3.2e+06 | – | – | – |
| B24 | – | – | – | 0.402 | 0.000178 | 444000 |
| B25 | – | – | – | 0.346 | 0.000159 | 460000 |
| B26 | – | – | – | 0.284 | 0.000135 | 476000 |
| B27 | – | – | – | 1.34 | 0.000703 | 525000 |
| B28 | 0.704 | 0.00145 | 2.05e+06 | – | – | – |
| B29 | 0.83 | 0.00129 | 1.55e+06 | – | – | – |
| B30 | – | – | – | 0.289 | 0.000121 | 420000 |
| B31 | – | – | – | 0.00551 | 2.67e-06 | 484000 |
| B32 | 0.422 | 0.000614 | 1.46e+06 | – | – | – |
| B33 | – | – | – | 0.464 | 0.000171 | 369000 |
| B34 | 0.766 | 0.000869 | 1.13e+06 | – | – | – |
| B35 | 0.447 | 0.000799 | 1.79e+06 | – | – | – |
